Legend:
[1] = biological target: SpySwitch; experiment: ITC
[2] = biological target: SpySwitch; experiment: ITC; pH 7.5

Substance	stoichiometry N [1]	Kd [2] [µM]
SpyTag003-MBP	1	1.5
SpyTag-MBP	1	1.1

— publication PMC9240080
